Test results as given in the nanobody polyreactivity screen of Harvey et al. (2022).

assay: yeast display, Sf9 membrane polyspecificity reagent, FACS + sequencing; frameworks hold sequencing errors
Outline: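 A nanobody's polyreactivity label depends on the gate it was sorted from. Yeast display cells were stained with 10% biotinylated, detergent-solubilized Sf9 membrane reagent for 1 hour at 4 °C, enriched on streptavidin microbeads and sorted by FACS. The low and high (top ~1%) gates were set on anti-HA fluorescence for expression and streptavidin fluorescence for reagent binding.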

Row | Sequence | polyreactivity (PSR sort gate)
1 | QVQVVESGGGLVQTGGSLRLSCAASGSTFRRYDMGWYRPAPGKEWELVAAISVSGGNTYYADSVKGRFTISRDNAKNTVYLQMNSLKPEDTAVYYCATSRWVDNKYTLRSRYYYWGQGTQVTVSS | high polyreactivity
2 | QVQLVESGGGLVQAGGSLRLSCAASGIIFTYYAMGWYRQAPGKERELVAGISSSGGITYADSVKGRFTISRDNAKNTVYLQMNSLKPEDTAVYYCAAESYGRSETEDDYWGQGTQVTVSS | low polyreactivity
3 | QVQLVDSGGGLVQAGGSLRLSCAASGSIFRGYAMGWYRPAPGKESGLVAAISRDGGSTYYADSVKGRFTISRDNAKNTVYLQMNSLKPEDTAVYYCAADYVAYATYGDGDYWGQGTQVTVSS | high polyreactivity
4 | QVQLVESGGGLVQAGGSLRLSCAASGYTFRYYAMGWYRQAPGKERELVARITGRAGSTYYADSVKGRFTISRDNAKNTVYLQMNSLKPEDTAVYYCAAQPAHPRRYDYWGQGTQVTVSS | high polyreactivity
5 | QVQLVESGGGLVQAGGSLRLSCAASGNTFYSNAMRWYRQAPGKERELVAAISTSGGSTFYADSVKGRFTISRDNAKNTVYLQMNSLKPEDTAVYYCAARSLRGHRYRYDYWGQGTQVTVSS | high polyreactivity
6 | QVQLVESGGGLVQAGGSLRLSCAASGITFTVNAMGWYRQSPGKERELVAAISWSGGSTYYADSVKGRFTISRDNAKNTVYLQMNSLKPEDTAVYYCNAVLYRFAYNYWGQGTQVTVSS | low polyreactivity
7 | QVQLVESGGGLVQAGGSLRLSCAASGRILTFYGLGWYRQAPGKERELVAAISNGGSTYYADSVKGRFTISRDNAKNTVYLQMNSLKPEDTAVYYCAKRILTAPRRNSGYDYWGQGTQVTVSS | low polyreactivity
8 | QVQLVESGGGLVQAGGSLRLSCAASGLTFYSYAMGWYRQAPGKERELVAAISKRGTNTFYADSAKGRFTISRDNAKNTVYLQMNSLKPEDTAVYYCAVDLSDSDYYWGQGTQVTVSS | low polyreactivity
9 | QVQLVESGGGLVQAGGSLRLSCAASGSTFEQYAMGWYRQAPGTERELVASISTGGGRTYYADSVKGRFTISRDNAKYTVYLQMNSLKPEETAVFYCNKRYRGYKTGYSRFDYWVQGTQVTVSS | low polyreactivity
10 | QVQLVESGGGLVQAGGSLRLSCAASGFIFYTYAMGWYRQAPGKERELVAAISWNGGSTNYADSVKGRFTISRDNAKNTDYLQMNSLKPEDTAVYYCAARSVSTLRYTSRKLRYDYWGQGTQVTVSS | high polyreactivity
11 | QVQLVESGGRLVQAGGSLRLSCAASGSTFSYYDMGGYRQAPGKEMELVADISWSGGSTYYADSVKGRFTISRDNAKNTVYLQMNSLKPEDTAVYYCAARGYVRWYNRYDYWGQGTQVTVSS | low polyreactivity
12 | QVQLVESGGGLVQAGGSLRLSCAASGSTLWRYTMGWYRQAPGKVREFVADINRGSSTNYADSVKGRFTISRDNAKNSVYLQINSLKPEDTAVYYCAAAKVHYGYNSWYYYWRQGTQVTVSS | low polyreactivity
13 | QVQLVESGGGLVQAGGSLRLSCAASGITSGHNAMGWYRQAPGKERELVADIRTGDSTNYADSVKGRFTISRDNAKNTVYLQMNSLKPEDTAVYYCAADSAYDVTSYGYWGQGTQVTVSS | low polyreactivity
14 | QVQLVESGGGLVQAGGSLRLSCAASGYIFPKNAMGWYRQAPGKERELVAAITGSGGSTYYADSVKGRFTISRDNAKNTVYLQMNSLKPEDTAVYYCAKRSWIEYDYWGQGTQVTVSS | low polyreactivity
15 | QVQLVESGGGLVQAGGSLRLSCAASGRTFGYNGKGWYRQAPGKERELVAAINSGGNTNYAESVKGRFTISRDNAKNTVYLQMNSLKPEDTAVYYCAKYGTLYEPVPNEYDNWGQGTQVTVSS | low polyreactivity
16 | QVQLQESGGGLVQAGGGLRLSCAASGTISGPHVMGSSRQAPRKEREFLAAINVGANTYYADNVKGRFTISRDNAKNTVYLQMNSLKPEDTAVYYCAAVYYGDIGHEYWGQGTQVTVSC | low polyreactivity
17 | QVQHVESGVGLVQAGGSLRLSCAASGRIFVFYTMGWYIQAPGKERELVARISSGGSKNYADSVKGRFTISRDNAKNTVYLQMNSLKPEDTAVYYCNAAYARGRAGYYYWGQGTQVTVSS | high polyreactivity
18 | QVQLQESGGGLVQAGGCLSCTSSGTIFGQGDMGWYRQAPGKERELVATINDGASTYYADSVKGRFTISRDTAKNSVYLQKNSLKPDDTAVYYCAVFTDITTYFGYWGQGTQVTVSS | low polyreactivity
19 | QVQLVESGGGLVQAGGSLRLSCAASGSIFGYYAMGWYRPAPGKERQLVAAIDSRGGSTYYADSVKGRFTISRDYEKNTVYLQMNSLKPEDTAVYYWAARLRYPRRGQGDNYWGQGTQVTVSS | low polyreactivity
20 | QVHLVESGGGLDQAGGSLRLSCAASASIFELYAMGWYRQAPGKERELVAVISTGGSTYYADSVKGRFTISRDNAKNTVYLQMNSLKPEDTAVYYCAKGGYVPKLEYWGQGTQVTVSS | high polyreactivity
21 | QVQLEESGGGLVQAGGSLRLSCAASGRIFGYYAMGWYRQAPGKERELVATITFGGGSTYYADSVKGRFTISRDNAKNTVYLQMNSLKPEDTAVYYCAADSGYLGIYGDEYSWGQGTQVTVSS | low polyreactivity
22 | QVQLVESGGGLVQAGGSLRLSCAASGSTFKIYAMGWYRQAPGKERELVAVITSGGRTNYADSGKGRFTISRDNAKNTVYLQMNSLKPEDTAVYYCARGRSIHSSNRLEYWGQGTQVTVSS | high polyreactivity
23 | QVHLVESGGGLVQAGGSLRLSCAASGITFWGNAMGWYRHAPGKEREFVARINWSGGRTYYAESVKGRFTISRDNAKITVYLQMKSLKPEDTAVYYCAATSLIYGYRTYVYWGQGTQVTVSS | high polyreactivity
24 | QVQLVESGGGLVQAGGSLRLSCAASGSIFTVYAMGWYRQAPGKESELVASIRFSSGRTYYADSVKGRFTISRDNAKNTVYLQMNSLKQEDTAVYYCASETVSWYRYYYWGQGTQVTVSS | high polyreactivity
25 | QVQLVESGGGLVQAGGSLRLSCAASGSIFPFNAMGWYRPAPGKERELVAAITSGGSTNYADSVKGRFTISRDNAKNTVYFQMNSLKPEDTAVYYCAADWRYWRWAFDYWGQGTQVTVSS | high polyreactivity
26 | QVQLVESGAGLVQAGGRLRLSCAATGLTFYFYVMGWYRQAPGKERELVADISTSDDSTYYADSVKGRFTISRDNAKNTVYLQMNSLKPEDTSVYYCATATRTYSAWYEYDYWGQVTQVTVSS | low polyreactivity
27 | QVQLVESGGGLVQAGGSLRLSCAASGNTFAVNAMGWYRQAPGKERELVAAISKRGGRTYYADSVKGRFTISRDNAKNTVYLQMNSLKPEDTAVYYCAADLSNSMDYWGQGTQVTVSS | high polyreactivity
28 | QVQLVESGGGLVQAGGSLRLSCAASGRTFLANAMGWYRQAPGKERELVAAITWSGGRTNYADSVKGRFTISRDNAKNTVYLQMNSLKPEDTAVYYCAADIFYEQVVGGTDVGYHDFDYWGQGTQVTVSS | low polyreactivity
29 | QVQLVESGGGLVQAGGSLRLTCAASGFTFYWYTMGWYRQAPGKERELVATISGSGGRTYYADSVKGRFTISRDNAKNTVYLQMNSLKPEDTAVYYCNAGRPYKYGYWGQGTQVTVSS | high polyreactivity
30 | QVQLVESGGGLVQAGGSLRLSCAASGRIFQSNAMGWYRQAPGKERELVAAISYSGGSTYYADSVKGRFTISRDNAKNTVYLQMNSLKPEDTAVYYCAADIFSPAFDYWGQGTQVTVSS | low polyreactivity
